Source: article PMC3323041 (The Journal of Biological Chemistry, 2012)

B1: Mdv1(94-314) K215A/K216A, containing the NTE and coiled coil (domain or fragment, S. cerevisiae, UniProt P47025 94-314, looked up)
chain: DNKTCFRMLTYISDDLLNEIPTKEGLKSDADGKLLTEGGENENLRKNASKKETSLFQGFKSYLPIAELAIENTERLNYDTNGTSGTVGAKDVMSKTNERDEIHTELPNFQDSFLIPPGVETAAISSSYSPSALKSFSQTLVNSLEFLNIQKNSTLSEIRDIEVEVENLRQKKEKLLGKIANIEQNQLLLEDNLKQIDDRLDFLEEYGLEVIEANSDENAED
B2: Yeast Fis1(1-129), lacking the transmembrane segment (domain or fragment, S. cerevisiae, UniProt P40515 1-129, looked up)
chain: MTKVDFWPTLKDAYEPLYPQQLEILRQQVVSEGGPTATIQSRFNYAWGLIKSTDVNDERLGVKILTDIYKEAESRRRECLYYLTIGCYKLGEYSMAKRYVDTLFEHERNNKQVGALKSMVEDKIQKETL

Tests used:
crystal structure = target: the molecule itself; experiment: crystal structure
[1] = target: B1; experiment: crystal structure

Binder	binding result (crystal structure)	binding result [1]
B1	binds	
B2		binds
